How the values were obtained:
[1] = according to references; cited from earlier work
[2] = Activity of the cloned, purified enzyme to N-acetyl-L-tryptophan; assay type: biochemical; conditions: cloned enzyme purified from E. coli
Source text: The present inventors focused on the fact that the D-aminoacylase derived from Alcaligenes denitrificans subsp. xylosoxydans MI-4 strain has an exceedingly high specific activity (404 U/mg) to N-acetyl-D-methionine. According to references, the D-aminoacylase had only 20 U/mg or lower activity to N-acetyl-D-tryptophan. The present inventors cloned the gene encoding the enzyme into E. coli, purified the cloned enzyme, and measured its specific activity. […] Thus, this enzyme can be useful to produce D-tryptophan from N-acetyl-DL-tryptophan.

[3] = Production of D-tryptophan from high concentrations of N-acetyl-DL-tryptophan using culture medium of recombinant E. coli; assay type: cell-based, E. coli HB101
Method: Cells of E. coli HB101 strain were transformed with the plasmid pSL-AD10 expressing the mutant D-aminoacylase 3AD-0089 (containing the amino acid substitution of A154V/M347A/R374F) obtained in Example 18. The transformant was inoculated to a liquid LB medium, and cultured at 30° C. overnight. Then, the E. coli was inoculated to a culture medium (2x YT) and incubated at 30° C. for 18 hours. N-acetyl-D-tryptophan was hydrolyzed using the culture medium solution of the E. coli.
400 mL of a reaction solution containing the culture medium solution of the E. coli and 15% N-acetyl-DL-tryptophan was incubated at 30° C. for 24 hours while being stirred. E. coli HB101 strain containing the wild type […] was used as a control. While with the wild type the yield was about 4%, with the recombinant E. coli containing pSL-AD10 the yield was 90% or higher (FIG. 1).
The hydrolysis was carried out in the presence of 20% N-acetyl-DL-tryptophan by the same method as described in Example 26. The yield was 90% or higher with the recombinant E. coli having the plasmid pSL-AD10 that contains the DNA encoding the mutant D-aminoacylase 3AD-0089 (containing the amino acid substitution of A154V/M347A/R374F). The optical purity of tryptophan produced was analyzed by the procedure described below. […] The elution was detected with the optical density at 280 nm. […]

[4] = D-aminoacylase activity assay (20 mM N-acetyl-D-tryptophan, TNBS method); assay type: biochemical
Method: The enzyme reaction can be achieved by incubating 1.0 ml of a reaction solution containing 20 mM N-acetyl-D-tryptophan (Sigma), 50 mM Tris-hydrochloride buffer (pH 7.5), and an enzyme solution at 30° C. for 10 minutes. Then, the reaction is stopped by adding 0.5 ml of a stop solution containing TCA (comprising 0.11 M trichloroacetic acid, 0.22 M sodium acetate, and 0.33 M acetic acid). The amount of D-tryptophan produced can be determined by TNBS method (Biosci. Biotech. Biochem., 58, 24 (1994)).
For example, 0.25 ml of 100 mM Na2B4O7 is added to 0.25 ml of the stop solution, 10 μl of 110 mM TNBS (trinitrobenzenesulfonic acid) solution is added to the mixed solution, and immediately thereafter, the resulting mixture is stirred. After the mixture is allowed to stand for five minutes, 1 ml of 100 mM NaHPO4 containing 1.5 mM Na2SO3 is added to the mixture to stop the color reaction. Then, the absorbance of the solution is determined at 420 nm. One unit of the enzyme activity is defined as the amount of enzyme that catalyzes the production of 1 μmol of D-tryptophan at 30° C. for one minute.

[5] = Hydrolysis of 15% N-acetyl-DL-tryptophan by E. coli cells; assay type: cell-based, E. coli HB101; conditions: 25° C., 24 hours
Method: 3AD-0013(M347Q/R374H) and 3AD-0089(A154V/M347A/R374P) are mutants with two amino acid substitutions and with three amino acid substitutions of the third generation mutants obtained in Example 17, respectively. Cells of E. coli HB101 strain transformed with plasmids expressing the two types of mutants were each inoculated to a liquid LB medium, and cultured at 30° C. overnight. Then, the E. coli cells were inoculated to a culture medium (2x YT) and incubated at 30° C. for 18 hours. The cells of E. coli were harvested, and used to hydrolyze N-acetyl-D-tryptophan.
10 ml of a reaction solution containing E. coli cells prepared from 5 mL of culture medium solution, 300 mM Tris-hydrochloride buffer (pH 8.0), and 15% N-acetyl-DL-tryptophan was incubated at 25° C. for 24 hours while being stirred. E. coli HB101 strain containing the wild-type pSL-ADD6 was used as a control. While the yield was about 15% with the wild type, the yields were about 30% and about 80% with the mutant 3AD-0013 having two amino acid substitutions and the mutant 3AD-0089 having three amino acid substitutions, respectively. Thus, the third generation mutants obtained in […] were confirmed to have higher processability in the hydrolysis of higher concentrations of N-acetyl-DL-tryptophan.

[6] = Conversion of 5% or 10% N-acetyl-DL-tryptophan by E. coli transformant cells; assay type: cell-based, E. coli HB101; conditions: 25° C.
Method: Cells of E. coli HB101 strain were transformed with the expression plasmids for the three mutant D-aminoacylases AD-0103, AD-1064, and AD-1927 obtained in Example 8, whose inhibition was impaired. The E. coli cells were inoculated in liquid LB media, and cultured at 30° C. overnight. Then, the transformants were inoculated in 2x YT (2% Bacto tryptone, 1% Bacto-yeast extract, 1.0% sodium chloride, pH 7.2) media and incubated at 30° C. for 18 hours. The E. coli cells were harvested. The bacterial cells were used to hydrolyze N-acetyl-D-tryptophan.
Cells of the respective E. coli transformants prepared from 5 ml of liquid culture media were incubated in 10 ml of reaction solutions which comprised 300 mM Tris-hydrochloride buffer (pH 8.0) containing 5% or 10% N-acetyl-DL-tryptophan at 25° C. while being stirred. An E. coli HB101 strain containing the plasmid pSL-ADD6 with the wild-type D-aminoacylase was used as a control. In assays using 5% N-acetyl-DL-tryptophan as the substrate, the yield was about 50% with the wild type, whereas the yield was about 100% with any one of the four mutants. In assays using 10% N-acetyl-DL-tryptophan as the substrate, the yield was about 15% with the wild type, whereas the yield was about 25% with each of the mutants AD-0103 and AD-1089; the yield was about 40% with the mutant AD-1064, and the yield was about 60% with the mutant AD-1927. […]

B1: wild-type: D-aminoacylase derived from Alcaligenes denitrificans subsp. xylosoxydans MI-4, SEQ ID NO: 1 (protein)
chain: MSQSDSQPFDLLLAGGTLIDGSNTPGRRADLGVRGDRIAAIGDLSDAAAHTRVDVSGLVVAPGFIDSHTHDDNYLLRRRDMTPKISQGVTTVVTGNCGISLAPLAHANPPAPLDLLDEGGSYRFERFADYLDALRATPAAVNAACMVGHSTLRAAVMPDLQRAATDEEIAAMRDLAEEAMASGAIGISTGAFYPPAARATTEEIIEVCRPLSAHGGIYATHMRDEGEHIVAALEETFRIGRELDVPVVISHHKVMGQPNFGRSRETLPLIEAAMARQDVSLDAYPYVAGSTMLKQDRVLLAGRTIITWCKPFPELSGRDLDEVAAERGKSKYDVVPELQPAGAIYFMMDEPDVQRILAFGPTMIGSDGLPHDERPHPRLWGTFPRVLGHYARDLGLFPLETAVWKMTGLTAARFGLAGRGQLQAGYFADLVVFDPATVADTATFEHPTERAAGIHSVYVNGAPVWQEQAFTGQHAGRVLARTAA
modifications: Alcaligenes denitrificans subsp. xylosoxydans MI-4
For B1, the “activity to N-acetyl-D-tryptophan” value [1] is listed as ≤ 20 U/mg, the “activity to N-acetyl-L-tryptophan” value [2] is listed as “inactive” and the yield ([3]; 15% N-acetyl-DL-tryptophan, 30° C., 24 hours, culture medium solution) is listed as “about 4%”. For the same molecule, the D-tryptophan produced ([3]; from 150 g/l N-acetyl-DL-tryptophan (75 g/l N-acetyl-D-tryptophan), FIG. 1) was “about 2.5 g/l”, the “D-aminoacylase activity of cell extract” value ([4]; cell extract of E. coli JM109 transformant) was 34 U/mg and the “specific activity of the purified enzyme” value ([4]; purified enzyme, N-acetyl-D-tryptophan) was 528 U/mg. The yield [5] was “about 15%”, the yield ([6]; 5% N-acetyl-DL-tryptophan) was “about 50%” and the yield ([6]; 10% N-acetyl-DL-tryptophan) was “about 15%”.
